Measurements: paper PMC12126530

Assays:
[1] = molecular target: Full-length Hsc70-T204A (ATPase deficient mutant) (human) (UniProt P11142); assay: NMR 15N-CPMG relaxation dispersion and exchange-induced shifts; 15N-labelled JDP observed, unlabelled Hsc70-T204A added to a molar ratio of 0.1 (DNAJB6 JD-GF 200 uM, DNAJB6 JD 350 uM, DNAJB1 300 uM); 25 °C; 20 mM HEPES pH 7.0, 50 mM KCl, 2.5 mM MgCl2; ATP-regenerating system with 2.5 mM ATP; fit to a two-state binding model
[2] = molecular target: Full-length Hsc70-T204A (ATPase deficient mutant) (human) (UniProt P11142); assay: NMR 15N-CPMG relaxation dispersion with exchange-induced shifts; 15N-labelled JDP (DNAJB6 JD-GF 200 μM, DNAJB6 JD 350 μM, DNAJB1 300 μM) with unlabelled Hsc70-T204A at a molar ratio of 0.1, ATP-regenerating system, 20 mM HEPES pH 7.0, 50 mM KCl, 2.5 mM MgCl2, 25 °C, 600, 800 and 950 MHz; fit to a 2-state model; kex = kon app + koff

Sequence of Full-length Hsc70-T204A (ATPase deficient mutant) (human) (P11142 whole entry T204A): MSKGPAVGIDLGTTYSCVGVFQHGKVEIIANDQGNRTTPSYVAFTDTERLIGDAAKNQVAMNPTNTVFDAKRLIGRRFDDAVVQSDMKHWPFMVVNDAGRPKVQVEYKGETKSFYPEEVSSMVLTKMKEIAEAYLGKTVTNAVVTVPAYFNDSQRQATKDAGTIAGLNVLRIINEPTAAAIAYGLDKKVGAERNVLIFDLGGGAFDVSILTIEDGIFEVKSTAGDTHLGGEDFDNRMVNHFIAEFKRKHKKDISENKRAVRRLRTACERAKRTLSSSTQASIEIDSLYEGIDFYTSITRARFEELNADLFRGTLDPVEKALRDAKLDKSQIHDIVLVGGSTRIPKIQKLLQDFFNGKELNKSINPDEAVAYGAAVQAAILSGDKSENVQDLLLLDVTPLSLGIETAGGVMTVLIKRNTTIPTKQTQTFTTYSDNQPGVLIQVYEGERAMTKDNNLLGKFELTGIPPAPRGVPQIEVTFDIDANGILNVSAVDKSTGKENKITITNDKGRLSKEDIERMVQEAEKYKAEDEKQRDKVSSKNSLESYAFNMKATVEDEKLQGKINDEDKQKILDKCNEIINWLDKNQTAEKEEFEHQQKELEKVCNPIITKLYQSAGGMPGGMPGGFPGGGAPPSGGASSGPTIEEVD

| Substance | kon [1] [M⁻¹ s⁻¹] | Kd [2] [µM] | kex [2] [s⁻¹] | koff [2] [s⁻¹] |
| --- | --- | --- | --- | --- |
| DNAJB6 JD-GF (from UniProt O75190 1-326) (domain or fragment) | 1.54e+06 | 380 | 600 | 580 |
| DNAJB6 JD (from UniProt O75190 1-326) (domain or fragment) |  | 3 | 3000 | 2700 |
